Data taken from patent publication US20250101127A1 (CYRON THERAPEUTICS, published 2025).

B1: humanized MP1 antibody VH8/VL2 (antibody, V domains shown)
VH: QVQLVESGGGVVQPGRSLRLSCAASGITFSSYWMNWVRQAPGKGLEWVAQIRNKPYNYEKYYAQSVKGRFTISRDDSKSTLYLQMSSLRAEDTAVYYCAWAMITSDGYAMDYWGQGTLVTVSS
VL: DIVMTQSPDSLAVSLGERATISCKSSQSVLLSSNQKNYLAWYQQKPGQPPKLLIYWASTRESGVPDRFSGSGSGTEFTLTISSLQAEDVAVYYCQQSFSYPLTFGQGTKLEIK
notes: tested as ExpiCHO-S culture solution
B2: humanized MP1 antibody VH7/VL3 (antibody, V domains shown)
VH: QVKVVESGGGVVQPGRSLRLSCAASGITFSDYWMNWVRQAPGKGLEWVAQIRNKPYNYETYYSNSVKGRFTISRDDSKSTVYLQMSSLRAEDTAVYYCTWAMITSDGYAMDYWGQGTLVTVSS
VL: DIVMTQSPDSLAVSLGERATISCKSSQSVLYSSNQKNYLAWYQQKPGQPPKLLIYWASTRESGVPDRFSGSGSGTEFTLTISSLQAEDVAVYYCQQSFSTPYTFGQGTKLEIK
notes: as for B1
B3: humanized MP1 antibody VH8/VL1 (antibody, V domains shown)
VH: QVQLVESGGGVVQPGRSLRLSCAASGITFSSYWMNWVRQAPGKGLEWVAQIRNKPYNYEKYYAQSVKGRFTISRDDSKSTLYLQMSSLRAEDTAVYYCAWAMITSDGYAMDYWGQGTLVTVSS
VL: DIVMTQSPDSLAVSLGERATISCKSSQSLLLSSNQKNYLAWYQQKPGQPPKLLIYWASTRESGVPDRFSGSGSGTEFTLTISSVQAEDVAVYYCQQCFSYPLTFGQGTKLEIK
notes: as for B1
B4: humanized MP1 antibody VH8/VL3 (antibody, V domains shown)
VH: QVQLVESGGGVVQPGRSLRLSCAASGITFSSYWMNWVRQAPGKGLEWVAQIRNKPYNYEKYYAQSVKGRFTISRDDSKSTLYLQMSSLRAEDTAVYYCAWAMITSDGYAMDYWGQGTLVTVSS
VL: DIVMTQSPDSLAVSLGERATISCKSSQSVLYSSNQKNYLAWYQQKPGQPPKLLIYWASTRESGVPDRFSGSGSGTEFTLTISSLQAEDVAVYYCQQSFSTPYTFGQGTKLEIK
notes: as for B1
B5: humanized MP1 antibody VH9/VL2 (antibody, V domains shown)
VH: QVQLVESGGGVVQPGRSLRLSCAASGFTFSSYWMHWVRQAPGKGLEWVAVIRYKPYGSEKYYAQSVKGRFTISRDDSKSTLYLQMSSLRAEDTAVYYCAWAMITSDGYAFDYWGQGTLVTVSS
VL: DIVMTQSPDSLAVSLGERATISCKSSQSVLLSSNQKNYLAWYQQKPGQPPKLLIYWASTRESGVPDRFSGSGSGTEFTLTISSLQAEDVAVYYCQQSFSYPLTFGQGTKLEIK
notes: as for B1
B6: humanized MP1 antibody VH7/VL5 (antibody, V domains shown)
VH: QVKVVESGGGVVQPGRSLRLSCAASGITFSDYWMNWVRQAPGKGLEWVAQIRNKPYNYETYYSNSVKGRFTISRDDSKSTVYLQMSSLRAEDTAVYYCTWAMITSDGYAMDYWGQGTLVTVSS
VL: EIVLTQSPGTLSLSPGERATLSCRASQSVLLSSNQKNYLAWYQQKPGQAPRLLIYWASSRETGIPDRFSGSGSGTDFTLTISRLEPEDFAVYYCQQSFSYPLTFGQGTKLEIK
notes: as for B1
B7: humanized MP1 antibody VH1/VL5 (antibody, V domains shown)
VH: EVKVVESGGGLVQPGRSLRLSCTASGITFSDYWMNWVRQAPGKGLEWVGQIRNKPYNYETYYSQSVKGRFTISRDDSKSIAYLQMSSLKTEDTAVYYCTWAMITSDGYAMDYWGQGTLVTVSS
VL: EIVLTQSPGTLSLSPGERATLSCRASQSVLLSSNQKNYLAWYQQKPGQAPRLLIYWASSRETGIPDRFSGSGSGTDFTLTISRLEPEDFAVYYCQQSFSYPLTFGQGTKLEIK
notes: as for B1
B8: humanized MP1 antibody VH4/VL4 (antibody, V domains shown)
VH: EVKVVESGGGLVQPGGSLRLSCAASGITFSDYWMNWVRQAPGKGLEWVAQIRNKPYNYETYYSNSVKGRFTISRDDAKSSVYLQMSSLRAEDTAVYYCTWAMITSDGYAMDYWGQGTLVTVSS
VL: EIVMTQSPGTLSLSPGERATLSCRSSQSLLLSSNQKNYLAWYQQKPGQAPRLLIYWASTRESGIPDRFSGSGSGTDFTLTISRVEPEDFAVYYCQQCFSYPLTFGQGTKLEIK
notes: as for B1
B9: humanized MP1 antibody VH4/VL5 (antibody, V domains shown)
VH: EVKVVESGGGLVQPGGSLRLSCAASGITFSDYWMNWVRQAPGKGLEWVAQIRNKPYNYETYYSNSVKGRFTISRDDAKSSVYLQMSSLRAEDTAVYYCTWAMITSDGYAMDYWGQGTLVTVSS
VL: EIVLTQSPGTLSLSPGERATLSCRASQSVLLSSNQKNYLAWYQQKPGQAPRLLIYWASSRETGIPDRFSGSGSGTDFTLTISRLEPEDFAVYYCQQSFSYPLTFGQGTKLEIK
notes: as for B1
B10: humanized MP1 antibody VH7/VL4 (antibody, V domains shown)
VH: QVKVVESGGGVVQPGRSLRLSCAASGITFSDYWMNWVRQAPGKGLEWVAQIRNKPYNYETYYSNSVKGRFTISRDDSKSTVYLQMSSLRAEDTAVYYCTWAMITSDGYAMDYWGQGTLVTVSS
VL: EIVMTQSPGTLSLSPGERATLSCRSSQSLLLSSNQKNYLAWYQQKPGQAPRLLIYWASTRESGIPDRFSGSGSGTDFTLTISRVEPEDFAVYYCQQCFSYPLTFGQGTKLEIK
notes: as for B1
B11: humanized MP1 antibody VH8/VL5 (antibody, V domains shown)
VH: QVQLVESGGGVVQPGRSLRLSCAASGITFSSYWMNWVRQAPGKGLEWVAQIRNKPYNYEKYYAQSVKGRFTISRDDSKSTLYLQMSSLRAEDTAVYYCAWAMITSDGYAMDYWGQGTLVTVSS
VL: EIVLTQSPGTLSLSPGERATLSCRASQSVLLSSNQKNYLAWYQQKPGQAPRLLIYWASSRETGIPDRFSGSGSGTDFTLTISRLEPEDFAVYYCQQSFSYPLTFGQGTKLEIK
notes: as for B1
B12: humanized MP1 antibody VH8/VL6 (antibody, V domains shown)
VH: QVQLVESGGGVVQPGRSLRLSCAASGITFSSYWMNWVRQAPGKGLEWVAQIRNKPYNYEKYYAQSVKGRFTISRDDSKSTLYLQMSSLRAEDTAVYYCAWAMITSDGYAMDYWGQGTLVTVSS
VL: EIVLTQSPGTLSLSPGERATLSCRASQSVLLSSSQKNYLAWYQQKPGQAPRLLIYWASSRATGIPDRFSGSGSGTDFTLTISRLEPEDFAVYYCQQSFSSPYTFGQGTKLEIK
notes: as for B1
B13: humanized MP1 antibody VH1/VL4 (antibody, V domains shown)
VH: EVKVVESGGGLVQPGRSLRLSCTASGITFSDYWMNWVRQAPGKGLEWVGQIRNKPYNYETYYSQSVKGRFTISRDDSKSIAYLQMSSLKTEDTAVYYCTWAMITSDGYAMDYWGQGTLVTVSS
VL: EIVMTQSPGTLSLSPGERATLSCRSSQSLLLSSNQKNYLAWYQQKPGQAPRLLIYWASTRESGIPDRFSGSGSGTDFTLTISRVEPEDFAVYYCQQCFSYPLTFGQGTKLEIK
notes: as for B1
B14: humanized MP1 antibody VH8/VL4 (antibody, V domains shown)
VH: QVQLVESGGGVVQPGRSLRLSCAASGITFSSYWMNWVRQAPGKGLEWVAQIRNKPYNYEKYYAQSVKGRFTISRDDSKSTLYLQMSSLRAEDTAVYYCAWAMITSDGYAMDYWGQGTLVTVSS
VL: EIVMTQSPGTLSLSPGERATLSCRSSQSLLLSSNQKNYLAWYQQKPGQAPRLLIYWASTRESGIPDRFSGSGSGTDFTLTISRVEPEDFAVYYCQQCFSYPLTFGQGTKLEIK
notes: as for B1
B15: humanized MP1 antibody VH1/VL2 (antibody, V domains shown)
VH: EVKVVESGGGLVQPGRSLRLSCTASGITFSDYWMNWVRQAPGKGLEWVGQIRNKPYNYETYYSQSVKGRFTISRDDSKSIAYLQMSSLKTEDTAVYYCTWAMITSDGYAMDYWGQGTLVTVSS
VL: DIVMTQSPDSLAVSLGERATISCKSSQSVLLSSNQKNYLAWYQQKPGQPPKLLIYWASTRESGVPDRFSGSGSGTEFTLTISSLQAEDVAVYYCQQSFSYPLTFGQGTKLEIK
notes: as for B1
B16: humanized MP1 antibody VH4/VL8 (antibody, V domains shown)
VH: EVKVVESGGGLVQPGGSLRLSCAASGITFSDYWMNWVRQAPGKGLEWVAQIRNKPYNYETYYSNSVKGRFTISRDDAKSSVYLQMSSLRAEDTAVYYCTWAMITSDGYAMDYWGQGTLVTVSS
VL: DIVMTQSPLSLPVTPGEPASISCRSSQSLLLSSNQKNYLAWYLQKPGQSPQLLIYWGSTRESGVPDRFSGSGSGTDFTLKISRVEAEDVGVYYCQQSFSYPLTFGQGTKLEIK
notes: as for B1
B17: humanized MP1 antibody VH4/VL7 (antibody, V domains shown)
VH: EVKVVESGGGLVQPGGSLRLSCAASGITFSDYWMNWVRQAPGKGLEWVAQIRNKPYNYETYYSNSVKGRFTISRDDAKSSVYLQMSSLRAEDTAVYYCTWAMITSDGYAMDYWGQGTLVTVSS
VL: DIVMTQSPLSLPVTPGEPASISCRSSQSLLLSSNQKNYLAWYLQKPGQSPQLLIYWASTRESGVPDRFSGSGSGTDFTLKISRVEAEDVGVYYCQQCFSYPLTFGQGTKLEIK
notes: as for B1
B18: humanized MP1 antibody VH1/VL1 (antibody, V domains shown)
VH: EVKVVESGGGLVQPGRSLRLSCTASGITFSDYWMNWVRQAPGKGLEWVGQIRNKPYNYETYYSQSVKGRFTISRDDSKSIAYLQMSSLKTEDTAVYYCTWAMITSDGYAMDYWGQGTLVTVSS
VL: DIVMTQSPDSLAVSLGERATISCKSSQSLLLSSNQKNYLAWYQQKPGQPPKLLIYWASTRESGVPDRFSGSGSGTEFTLTISSVQAEDVAVYYCQQCFSYPLTFGQGTKLEIK
notes: as for B1
B19: humanized MP1 antibody VH4/VL2 (antibody, V domains shown)
VH: EVKVVESGGGLVQPGGSLRLSCAASGITFSDYWMNWVRQAPGKGLEWVAQIRNKPYNYETYYSNSVKGRFTISRDDAKSSVYLQMSSLRAEDTAVYYCTWAMITSDGYAMDYWGQGTLVTVSS
VL: DIVMTQSPDSLAVSLGERATISCKSSQSVLLSSNQKNYLAWYQQKPGQPPKLLIYWASTRESGVPDRFSGSGSGTEFTLTISSLQAEDVAVYYCQQSFSYPLTFGQGTKLEIK
notes: as for B1
B20: humanized MP1 antibody VH8/VL8 (antibody, V domains shown)
VH: QVQLVESGGGVVQPGRSLRLSCAASGITFSSYWMNWVRQAPGKGLEWVAQIRNKPYNYEKYYAQSVKGRFTISRDDSKSTLYLQMSSLRAEDTAVYYCAWAMITSDGYAMDYWGQGTLVTVSS
VL: DIVMTQSPLSLPVTPGEPASISCRSSQSLLLSSNQKNYLAWYLQKPGQSPQLLIYWGSTRESGVPDRFSGSGSGTDFTLKISRVEAEDVGVYYCQQSFSYPLTFGQGTKLEIK
notes: as for B1

Target: T1, MUC1 (Mucin-1) as expressed by human cancer cell lines (human, UniProt P15941 24-1255)
T1 construct: whole, on cells; Endogenous antigen on the cell surface (flow cytometry) or in cell lysates (immunoprecipitation, western blot); also called MUC1 antigen; antigen recognized by the MP1 monoclonal antibody
T1 sequence (P15941 24-1255): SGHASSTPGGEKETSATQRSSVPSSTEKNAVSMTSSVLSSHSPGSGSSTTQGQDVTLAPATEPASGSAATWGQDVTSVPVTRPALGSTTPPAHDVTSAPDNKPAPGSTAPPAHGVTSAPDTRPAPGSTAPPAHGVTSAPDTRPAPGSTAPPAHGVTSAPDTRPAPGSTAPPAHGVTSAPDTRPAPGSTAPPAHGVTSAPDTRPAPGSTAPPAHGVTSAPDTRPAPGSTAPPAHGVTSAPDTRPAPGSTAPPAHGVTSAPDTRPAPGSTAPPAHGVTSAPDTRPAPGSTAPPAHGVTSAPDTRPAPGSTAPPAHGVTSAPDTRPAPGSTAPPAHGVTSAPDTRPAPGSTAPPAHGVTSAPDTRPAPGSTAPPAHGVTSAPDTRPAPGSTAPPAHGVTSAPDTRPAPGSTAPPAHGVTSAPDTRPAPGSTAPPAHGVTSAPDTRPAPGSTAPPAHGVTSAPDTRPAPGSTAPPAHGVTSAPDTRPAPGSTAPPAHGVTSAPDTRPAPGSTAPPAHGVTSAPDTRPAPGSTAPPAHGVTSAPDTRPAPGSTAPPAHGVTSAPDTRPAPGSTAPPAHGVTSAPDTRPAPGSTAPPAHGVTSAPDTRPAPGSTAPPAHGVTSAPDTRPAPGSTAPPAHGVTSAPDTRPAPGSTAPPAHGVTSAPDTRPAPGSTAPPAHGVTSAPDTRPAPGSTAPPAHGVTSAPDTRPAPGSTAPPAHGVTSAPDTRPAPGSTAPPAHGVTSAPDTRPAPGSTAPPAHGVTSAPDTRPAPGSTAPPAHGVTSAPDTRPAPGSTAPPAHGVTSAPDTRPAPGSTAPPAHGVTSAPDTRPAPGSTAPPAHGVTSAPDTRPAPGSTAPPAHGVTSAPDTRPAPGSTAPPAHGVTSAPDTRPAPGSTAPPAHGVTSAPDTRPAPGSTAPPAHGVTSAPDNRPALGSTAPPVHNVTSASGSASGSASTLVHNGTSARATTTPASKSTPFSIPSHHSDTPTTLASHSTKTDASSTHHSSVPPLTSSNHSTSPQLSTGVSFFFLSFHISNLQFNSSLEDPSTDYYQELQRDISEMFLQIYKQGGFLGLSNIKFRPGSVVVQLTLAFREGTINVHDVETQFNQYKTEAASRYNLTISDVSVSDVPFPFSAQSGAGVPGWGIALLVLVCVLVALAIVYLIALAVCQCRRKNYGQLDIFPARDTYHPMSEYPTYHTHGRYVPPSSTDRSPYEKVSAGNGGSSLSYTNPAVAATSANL
Assay: flow cytometry, Capan-2 cells stained with transient-expression culture solution; positive rate against the negative control

| Binder | Capan-2 cell surface binding (%) |
| --- | --- |
| B1 | 11.4% |
| B2 | 11.5% |
| B3 | 6.65% |
| B4 | 28.5% |
| B5 | 7.04% |
| B6 | 10.2% |
| B7 | 27.2% |
| B8 | 18.1% |
| B9 | 16.9% |
| B10 | 12.7% |
| B11 | 6.61% |
| B12 | 9.97% |
| B13 | 15.8% |
| B14 | 15.6% |
| B15 | 13.5% |
| B16 | 11.4% |
| B17 | 11% |
| B18 | 7.95% |
| B19 | 7.2% |
| B20 | 7.16% |
